Source: the DeepSol protein solubility set

experiment: soluble on expression in E. coli; label from the status in PepcDB or PDB records

Row | Sequence | soluble on expression in E. coli
1 | MNDEQQNSNQSENTKKPFFQSLFGRFFQGELKNREELVEVIRDSEQNDLIDQNTREMIEGVMEIAELRVRDIMIPRSQIIFIEDQQDLNTCLNTIIESAHSRFPVIADADDRDNIVGILHAKDLLKFLREDAEVFDLSSLLRPVVIVPESKRVDRMLKDFRSERFHMAIVVDEFGAVSGLVTIEDILEQIVGDIEDEFDEEEIADIRQLSRHTYAVRALTDIDDFNAQFNTDFDDEEVDTIGGLIMQTFGYLPKRGEEIILKNLQFKVTSADSRRLIQLRVTVPDEHLAEMNNVDEKSELEHHHHHH | not soluble
2 | MAHHHHHHMSVFEARQKVYATLHGTFHAAIVQEVAVDAETGQYLYYVHYVEQDSRMDCWLPASELKERRQGRQASKQQTNKSGGGGITTRGQSRLVAGKEDEVSRGPNTPTSSAKRSNLQNCVKVSTTRARKDSSFFSRPKNIHSICMGPYEVATWYFSPYHLARPQIQQGLKQNAELFSGKMELQLRQENKKSAFQTAVVPTSFVLHICPFCLHPFTAHEDVVRHLQIVCPRHPPGNEIYRDPVRQLVVLEMDAVVEPVFCEHLALLSKLFLEHKALDHDMTPFLFYVLCAVQPHGLEVLGYFSKEKQSPEMYNLSCILVLPQFQSRGIGRFLIELSYELSRREGRIGSPEKPLSDLGEKLYLGYWGDVIVSALARAIEENHCATLEYLVQATYLSQADVLRTLQYLRLLNGTQIVVSEESIERCYSRRLHRERSGKNYVFYPHLLSWSPHMYYELKEQDVAPPIYVTQSEELEQNAASKGQRVF | not soluble
3 | MQRETVWLVEDEQGIADTLVYMLQQEGFAVEVFERGLPVLDKARKQVPDVMILDVGLPDISGFELCRQLLALHPALPVLFLTARSEEVDRLLGLEIGADDYVAKPFSPREVCARVRTLLRRVKKFSTPSPVIRIGHFELNEPAAQISWFDTPLALTRYEFLLLKTLLKSPGRVWSRQQLMDSVWEDAQDTYDRTVDTHIKTLRAKLRAINPDLSPINTHRGMGYSLRGL | soluble
4 | MGELANCPKCNALFLKTKLQTVCQACIKEEEKSFETVYKFLRKQENRQSTLSRITEETGVEEELILKFIRQKRIQITHLPNLAYPCERCGTSIREGKFCKACQSDIKDQMDHLNHEDALKIEKENSKKDTYYAYNTKNSLEHHHHHH | soluble
5 | MGSDKIHHHHHHMKKASTLPLFERLVQHDRGGPISCHVPGHKQGALFHKDACSYFQSILSLDVTELTGLDDLHDPRGVIAEAQALTARYVGAEATCFLVNGSTVGNLAMILGTLEPGDTVFVQRDSHKSVMNGLAMARVHPIFLSPSYDERTQLPTGITEQTLKQALIEHPNGKALILTYPSYYGVARSIRPLVQMAKEAGLYVLVDEAHGAHFPVGDPFPKQALEQGADVVVQSAHKTLPALTMGSYLHFAHGLHSKIKDSIREQLQILQSSSPSYPILASLDAARGFLEDLTNVKDTLDSIAEMNRRIEQVERLSVATFSPLPTDPLKTVITVEGATGFALQTELEKEGIYSELADDRHVLLMWGLTPLQKVRQEEIIDKMCRATKRLPALEQISKGCPLSLSWQAHTSLDLSYDEQKRYSIEEVAVEEAVGKVSGATVIPYPPGVPLLLKGEKITEPLIAQFQQLQEAGARFQGRPSEQQGLYVFTLEAMT | not soluble
6 | MAHHHHHHMSSSAEEKEAKKQEELRLAGSDSEGVRAAVKAQRELKKKRDALRKVQKKIRSGGSDAEVAAAIEQEAALLAEIGHLEALRGASSAPSTAHVAAASFTSTPATAAASPGALVTVATNKSSGAKAARSGEPAKEITAEERAASAKRLHDLVQGAMDANRLKCLHVLPRDAVVHPRIAEVAVLMEQMLLVGGSARALALISAFRELSRTTTVLAVPSLNEVNTTAFEKLIQINFDFVRRKREASAGMRHVKDVLVRRFVALRDEVIHPKPNMVDLIKDLGGPREVTLKILDAIEAELKMSFKSIVEDRSLPYVSSSDTILVFGRSSLVEYILLSRSRDPQCKPKRVIVIDSAPLFEGRQLAEKLSSAGIDVTYGLITACCTLMPKCTRVFMGASAVLQNGDMFGRCGMALVAACAKLFRKPVLCFSESYKFVPEVWVGNLAQNTKLADMRPAAEVHGSDTGTHSPLVYPTPPTLSPPQLRASGGWGTPARGADFLTRSGGGGAVPFSSSASGYLYDLTPASYIDMIICEMGCLHTSAIVAAIKDREGRDTSQLLNLVRG | soluble
7 | MGSDKIHHHHHHMTETERLALASLLYQLADDDFLYAYRGSEWLGLAPHIEEDVASSSIAQDSMGHAAMYYQLLEEIGEGKADALAHVRLAHERKNSVLVERVNGPGYYMENPEYDWAYAVVRNYCYTLAKKVRIDSLKKSSYTPLAALAVKVNMELYYHLLHWQTWFTQLYQSTETARQKMDAALERVLADFGDLFDYGEASELIDEMRLIEGQGILLDRWYQALTPVLVDLNVTLPEMKMTYNGRNGEHSPDLNDALSTLGEVYLLDQSAVW | not soluble
8 | MSAPSRTVLRELTATKYVANYTDEYQLETARAGCSALPPQPNINHDAIIEGHGEDVELVEDKNYRSLHRIDETPKLVDKKPSKAIIRDEAVKVLRDIQTMPIENLRLKRYDFFSQRWFNTTRESEKALVEHVLLHPNQRPHYFAAQCRMLSAEDISSLILTSLLAEPKETGQNVVRFAIQAKTAMPFQQLFAILEKLEMEIEGFQMTDSFVVATLIRSQSKSTTTRRLRTTNCREYGNLEPGLDSQGRLMASTASITCSIRGKRHVETRIVYNNNSSARDPFRRYRYIELEQTVKCMNRRVQIVEEPVEFHEFEVENDMVSLRNGMVLVDDLISFLETFELDEE | not soluble
9 | MNFQKLLKEAQKAQKKAAEVQERLERMTVVGSAQGLVEVEANGHGKILALRLKPEALKAFQDDPEGLEDLLLVAIQDAQTKAHELSEKEMAKELGGVGQMLGKLF | soluble
10 | MGSDKIHHHHHHLTIRVLAHLAGAHLDHAIALGLRSGLGDDWLRIGGLKLFADGSLGSESAHMLLPYEGRDHTGIAVIPPAEMQEIVTRANAHGISVVVHAIGDAANRSVLDAIAAARATAASLALPNRIEHCQILDPHDIPRFAELNVIASMQPIHCTADMVMAERLWGKRCATSYAWRSLRAAGATLAFGSDAPVETMDPWAGIHAAVTRQTTDGTPDGGWYPEQRLTLTEALEAYCIGPTIAGADAERRGRLIPGMFADLAVLNGDPFQMPVTHLHTLHAELTMVGGKIVFNRTSR | not soluble
11 | GPGSMGQHSAKEFRGSRRGESNSGVFPLGPGHAHVGMGSTKKPLGIHTSAVQNNVLRQRNQHRRVMHEEGGSHPRGQEADGSHGEDIAEEKFPVVIRYAAHDVRSLLSSNEKVYVAVESLNWSKLPMTASEDSFYAIVELPQGPQRFRFVVGETEVVDTAQPIEDIAEGTPLLEPRGDVGHKGETRANVIHVNKALLLTKEDEEVPDDGSGWGQEEIIHKEDRKHPPIMPVHLRYTPVNTPLTAARCALDGFMRTTDEDTVSPENLPIPLSVTVNHVYFQRREDHCVTAMTTRFCNKYSTMVYYSKAEPTASLQ | not soluble
12 | MIEYTSGDILRCEADALVNTVNCVGVMGRGIALQFKNMYPANFKAYEAACKREEVQPGRMFVFETKQLTPPRLIINFPTKRHWRGKSRIEDIEAGLVDLVNVIRDKNIRSIAIPPLGAGLGGLDWKEVRPRIEHALGELEGVQVIVYEPNGAPASDKMAHVREVPKMTSGRAALVELMQRYLSGLLDPFVTLLEVHKLMYFMQEAGEPLRLDYIKHHYGPYAKNLRHVLNAIEGHLIAGYADGGDAPDKPLSLVPGAVAEAKSFLDQHEISRARFERVTRLVEGFESPYGLELLATVHWVIHREGATQSDSVKRQIYQWNDRKRQFTQRQLVIAEERLRSQGWLSPETTFTYMAGDPLEHHHHHH | not soluble
13 | MPSGYGVLLATHDDDTVDVFTSGRKMRLTCSPNIDAASLKKGQTVRLNEALTVVEAGTFEAVGEISTLREILADGHRALVVGHADEERVVWLADPLIAEDLPDGLPEALNDDTRPRKLRPGDSLLVDTKAGYAFERIPKAEVEDLVLEELVPR | soluble
14 | MRGSHHHHHHGSMQILLANPRGFCAGVDRAISIVENALAIYGAPIYVRHEVVHNRYVVDSLRERGAIFIEQISEVPDGAILIFSAHGVSQAVRNEAKSRDLTVFDATCPLVTKVHMEVARASRRGEESILIGHAGHPEVEGTMGQYSNPEGGMYLVESPDDVWKLTVKNEEKLSFMTQTTLSVDDTSDVIDALRKRFPKIVGPRKDDICYATTNRQEAVRALAEQAEVVLVVGSKNSSNSNRLAELAQRMGKRAFLIDDAKDIQEEWVKEVKCVGVTAGASAPDILVQNVVARLQQLGGGEAIPLEGREENIVFEVPKELRVDIREVD | soluble
15 | MPFKLSPDCIVLAEPEKLHYPGDTVSGHIVLKFEKFSTCRAITLTVKGKAETGWDNVTKVGQWTYFNESGVLWKAEMSENRIEPGTHRIPFDYTVPENIPQSFEGPFGFIRFYIKVHMDRPHALDQCVKKEFLVTQKPTVVSKKHLGPEHIIRYCQKLNCNRGEIYFEAQLSNRIIFFDDPISLIIKIKNCSSRTIKKISLEAFQRIEYYSTTSACRKTHSVLIGKTGKSELKIRNDEIAISTFSMKFKEPATPSFASELIQVSYVLLVNLFTDGFWAAPLVFPVEFEVGKKSDVGTEDEETCDGLINFDED | not soluble
16 | MGSDKIHHHHHHGCNQSSKSDTKKEVTSKVGTYASVDCSTFTKSKDLPKGASCGYLTVPEKHAIKGQSASKKTMEIAVLKIPATKTEAKADPVVYLQGGPGYSAIDSLEDFTQSKAKYLWNDRDFYLVDQRGTGHAKPAYKCTEFNTVKGSIEQVKACKARLKAKGVDFSAYQSVQSAHDFIMLRKALKLDSWNLYGASYGTRLAETIIREDSQGVRSVILDGVFPIEVNGLSDTPWATYATLDRIVANCDASINCASEILKPMIESIIERLQNQGEEQAAIRFVNYIASLAGDARVVPLILAIDKDLNIIINEKDNEEAEGYFAPMALSVVCAEEYAFLNQTALEGRNDKNWSTTTTLTVNKMFHEGFDIDSCKAWDVAAADSIETQAVTSNLPILVINGGNDHQTPPAWGELVVKNMPNAQLFTNPQGGHVQLTSQNPYRNCIDGITMAFLAAPDQKIKTQCTSMIPVFKYN | not soluble
17 | GPGSMSYSGRKLKYFVEDSDGWLRRNQQVAEQFVMAEDDRETKEMLSLLAPRAHFASFWGVVRGLPAAVALQAQEREHLRITWTSGLQPLTSRTFARNGYVHVLDRERMSFIPVLGPWLSSFFQRPVQELLVVREGRVVFRGMGYVWDIGKH | not soluble
18 | MAKEWGYASHNGPDHWHELFPNAKGENQSPIELHTKDIRHDPSLQPWSVSYDGGSAKTILNNGKTCRVVFDDTYDRSMLRGGPLPGPYRLRQFHLHWGSSDDHGSEHTVDGVKYAAELHLVHWNPKYNTFKEALKQRDGIAVIGIFLKIGHENGEFQIFLDALDKIKTKGKEAPFTKFDPSSLFPASRDYWTYQGSFTTPPCEECIVWLLLKEPMTVSSDQMAKLRSLLSSAENEPPVPLVSNWRPPQPINNRVVRASFKHHHHHH | soluble
19 | MSLKPTIYDIAKKANVSKSTVSRVLNNQPNISDKAKASVLQAIKELNYEPSKIARGLSGNGFDAILALSHRTSHTTYGNPFFSDVIQSISAVSEQNNFDLILQTAKTPEEELEKCAKKIQEKMIRGIIILSSTMDETLLFELDQYNIPIVVIGKVGNDYTNIYSVDTDNFQDSYDLVETLIKNGHRHIGCLHAPTEVYVSNDRLNGYRQCLFDHHLDIRNEWIIDGGFRLEDSMAAMNDLMKLRERPTAIFSTDALKSLSIYKVAEQSGKQIPDDLSIAGFSDPLLSSLFSPQLTRIDIPTNQLGIKATELLFQLIHHQYPEEKRIILSTEITLTDSIEGHHHHHH | not soluble
